Source: US12337037B2, “Taxol conjugate compounds, pharmaceutical compositions comprising the same, and methods for their use” (N1 Life, Inc, priority 2021, dated 2025)
Where two headings read alike, the source gives them in different places.

What was measured:
Stability in plasma, rat = format: in vitro ADME; conditions: for half-life: 37° C., read-out: Mean T1/2 (converted)
Protocol: Working solutions of test compounds were prepared in PBS (pH 7.4). Propantheline was used as positive control for human, monkey, dog and mouse plasma in the assay. Mevinolin was used as positive control for rat plasma in this assay. 1 mM propantheline working solution was prepared in acetonitrile. 1 mM mevinolin working solution was prepared in DMSO. Incubation buffer of 475 μL plasma for each cell was added into the incubation plate and pre-warmed at 37° C. for 15 minutes. After the pre-incubation, 25 μL of working solution (test compounds or control compounds) was spiked to plasma. For Compound 5 and Compound 3, the final concentration of organic concentration was 0%. For Taxol, the final concentration of organic solvents was 0.25%. The assay was performed in duplicate. The reaction samples were incubated at 37° C. Aliquots of 50 μL were taken from the reaction samples at 0, 0.25, 0.5, 1, 2, 4, 6, 8 and 24 hours. The reactions were stopped by the addition of 450 μL of ice-cold quench solution (methanol with 2% FA containing internal standards). All samples were vortexed for 10 minutes, following by centrifugation at 3,220 g for 30 minutes to precipitate proteins. 100 μL of the supernatant from each well was transferred to a new plate. The supernatant was diluted with ultrapure water. Samples were analyzed by LC-MS/MS. All calculations were carried out using Microsoft Excel. Peak area ratios were determined from extracted ion chromatograms. Percent compounds remaining at each time point were calculated by the following equation: Remaining Percentaget min(%)=Peak Area Ratiot min/Peak Area Ratio0 min×100
Peak Area Ratiot min is peak area ratio of control and test compounds at t min; and
Peak Area Ratio0 min is peak area ratio of control and test compounds at zero time point.
(§1) The slope value, k, was determined by linear regression of the natural logarithm of the remaining percentage of the parent drug vs. incubation time curve.
The in vitro half-life (in vitro t1/2) was determined from the slope value: in vitro t1/2=(0.693/k)

[1] = Safety: animal body weight change after dosing, tumor bearing mice; conditions: for Weight on day 21 (MEAN ± SD) / Weight on day 0 (MEAN ± SD): IP Q5D (day 0, 5, 10); for Weight on day 21 (MEAN ± SD) / Weight on day 0 (MEAN ± SD) / Weight gain (%): Taxol 10 mg/kg; for Weight on day 0 (MEAN ± SD): baseline; for Weight gain (%): day 0 to day 21, IP Q5D
Text: Animals: Female athymic nude mice were used in this study. The experimental mice were purchased from Shibefu (Beijing) Biotechnology Co., Ltd. (QC number: SCXK Beijing 2019-0010) and maintained in a High Efficiency Particulate Air Filter (HEPA) filtered environment with cages, food and bedding sterilized by irradiation or autoclaving.
Establishment of peritoneal disseminated metastasis model of human ovarian cancer: Human ovarian cancer (SKOV-3-GFP) cells in logarithmic growth period were digested with 0.25% trypsin, rinsed with phosphate buffer (PBS) twice, centrifuged, and suspended with serum-free RPMI1640 medium. Cell suspension (6×10^6/120 μL/mouse) was injected into the peritoneal cavity of each experimental mouse for the establishment of peritoneal disseminated metastasis model of human ovarian cancer.
Groups, testing articles and treatment protocols: Day 4 after cell inoculation, all mice were subjected to systemic imaging using FluorVivo Model-100 (INDEC biosystems, CA, USA). Mice with a small deviation from average tumor load were enrolled in the study. All animals were randomly allocated to the different study groups, 6 mice in each group. Dosing schedule was Q5D (day 0, 5, 10), dosing volume was 10 μl/g, and administration route was intraperitoneal injection. Each dose of Compound 3 or Compound 5 was 9.6 mg/kg (equimolar to 2.5 mg/kg Taxol) and each dose of Taxol was 10 mg/kg. Taxol working solutions were prepared from 6 mg/mL stock solution, while Compounds were dissolved in PBS (pH 7.4) and filtered through 0.22 μm filter.
Monitoring of the experimental mice: During the period of the study, all experimental mice were checked daily for mortality or signs of morbidity. Images of tumor progression were acquired three times a week during the period of the study with the FluorVivo imaging system, Model 100/Mag (INDEC BioSystems, CA, USA). The body weights of the mice were measured three times a week during the period of the study.
Study endpoint: On Day 21 after administration, animals were euthanized by inhalation of excessive anesthetics. All tumors were exposed for imaging (under the same exposure conditions), after which the tumors were removed and weighed with an electronic balance (Sartorius BS 124 S, Germany). The tumor samples were then stored in formalin solution.
Statistical methods used in efficacy evaluation: Comparison of body weights and tumor burdens in different groups were analyzed using EXCEL t-test with an α=0.05 (two-sided).

Stability in buffer = format: physicochemical; conditions: for half-life at 5 μM: buffer solution, read-out: Mean T 1/2 (converted)
Protocol: Working solutions of Compound 5 (1 mM of) and Compound 3 (1 mM) were prepared. Buffer solution (199 μL) was prepared and divided into fourteen incubation tubes. The tubes were then pre-warmed at 37° C. for 15 minutes. The 1 mM Compound 5 working solution was added to seven incubation tubes (1 μL each) for a final concentration of 5 μM and the 1 mM Compound 3 working solution was added to seven incubation tubes (1 μL each) for a final concentration of 5 μM. For Compound 5, the final concentration of organic solvents was 0.5%. Each samples was incubated at 37° C. for 0, 4, 8, 24, 48, 72, or 120 hours. The assay was performed in duplicate. After incubation for 0, 4, 8, 24, 48, 72 or 120 hours, reactions were quenched by the addition of 1000 μL methanol (pre-cool treatment under 4° C.) with 2% FA containing internal standards. All samples were vortexed for 10 minutes. 150 μL of the supernatant from each sample was transferred to a new plate. 150 μL of pure water was added to each sample for analysis by LC-MS/MS (cooler temperature: 15° C.). All calculations were carried out using Microsoft Excel. Peak area ratios were determined from extracted ion chromatograms. Percent compounds remaining at each time point were calculated by the following equation: Remaining Percentaget min(%)=(Peak Area Ratiot min/Peak Area Ratio0 min)×100
Peak Area Ratiot min is peak area ratio of test compounds at t min; and
Peak Area Ratio0 min is peak area ratio of test compounds at zero time point.
as §1
The in vitro half-life (in vitro t1/2) was determined from the slope value: in vitro t1/2=(0.693/k) Appearance of Taxol concentration (nM)=Peak Area Ratio t min/Peak Area Ratio(Taxol: 5 μM)×5000% Appearance of Taxol=Peak Area Ratio min/Peak Area Ratio(Taxol: 5 μM)×100

[2] = Table 7A (Compound 3 set), Compd 3 9.6 mg/kg
[3] = separate experiment, 38.4 mg/kg, 3 Q5D doses, tumor bearing mice
[4] = Table 7B (Compound 5 set), Compd 5 9.6 mg/kg

CC(=O)N[C@@H](CSSCCCC(=O)OC(C(=O)O[C@H]1C[C@@]2(O)[C@@H](OC(=O)c3ccccc3)[C@@H]3[C@]4(OC(C)=O)CO[C@@H]4C[C@H](O)[C@@]3(C)C(=O)[C@H](OC(C)=O)C(=C1C)C2(C)C)[C@@H](NC(=O)c1ccccc1)c1ccccc1)C(=O)N[C@H](CCCNC(=N)N)C(=O)N[C@H](CCCNC(=N)N)C(=O)N[C@H](CCCNC(=N)N)C(=O)N[C@H](CCCNC(=N)N)C(=O)N[C@H](CCCNC(=N)N)C(=O)N[C@H](CCCNC(=N)N)C(=O)N[C@H](CCCNC(=N)N)C(=O)N[C@H](CCCNC(=N)N)C(N)=O (stereo partly drawn) [Compound 3, Ac-L-Cysteine (paclitaxel-4-mercaptobutanoate)-D-Arginine8-NH2]
Percent Increase of T1/2, Compound 3 over Compound 5 (Stability in plasma, rat): 50%
half-life (Stability in plasma, rat): 0.45 h
body weight higher compared with the vehicle (PBS) group ([1]; 9.6 mg/kg IP Q5D, end of experiment): about 24%
Weight on day 21 (MEAN ± SD) [1, 2]: 18.5 ± 1.4
Weight on day 0 (MEAN ± SD) [1, 2]: 16.3 ± 1.0
Weight gain (%) [1, 2]: about 13%
Weight gain (%) ([1]; Table 7A (Compound 3 set), Compd 3 9.6 mg/kg, listed as Compd 3): 13%
animal deaths [1, 3]: no animal deaths were reported
body weight change on Day 21 [1, 3]: +22.1%
Percent Increase of T1/2, Compound 3 over Compound 5 (Stability in buffer; buffer pH 5.5): 6.05%
Percent Increase of T1/2, Compound 3 over Compound 5 (Stability in buffer; buffer pH 6.0): 6.36%
Percent Increase of T1/2, Compound 3 over Compound 5 (Stability in buffer; buffer pH 6.5): 8.01%
Percent Increase of T1/2, Compound 3 over Compound 5 (Stability in buffer; buffer pH 7.4): 10.67%
half-life at 5 μM (Stability in buffer; buffer pH 5.5, 37° C.): 125 h
half-life at 5 μM (Stability in buffer; buffer pH 6.0, 37° C.): 99.5 h
half-life at 5 μM (Stability in buffer; buffer pH 6.5, 37° C.): 92.3 h
half-life at 5 μM (Stability in buffer; buffer pH 7.4, 37° C.): 54.6 h

CC(=O)N[C@H](CSSCCCC(=O)O[C@@H](C(=O)O[C@H]1C[C@@]2(O)[C@@H](OC(=O)c3ccccc3)[C@@H]3[C@]4(OC(C)=O)CO[C@@H]4C[C@H](O)[C@@]3(C)C(=O)[C@H](OC(C)=O)C(=C1C)C2(C)C)[C@@H](NC(=O)c1ccccc1)c1ccccc1)C(=O)N[C@H](CCCNC(=N)N)C(=O)N[C@H](CCCNC(=N)N)C(=O)N[C@H](CCCNC(=N)N)C(=O)N[C@H](CCCNC(=N)N)C(=O)N[C@H](CCCNC(=N)N)C(=O)N[C@H](CCCNC(=N)N)C(=O)N[C@H](CCCNC(=N)N)C(=O)N[C@H](CCCNC(=N)N)C(N)=O [Compound 5, Ac-D-Cysteine (paclitaxel-4-mercaptobutanoate)-D-Arginine8-NH2]
half-life (Stability in plasma, rat): 0.3 h
Weight on day 21 (MEAN ± SD) [1, 4]: 16.9 ± 1.1
Weight on day 0 (MEAN ± SD) [1, 4]: 16.9 ± 0.6
Weight gain (%) [1, 4]: no change in body weight
Weight gain (%) ([1]; Table 7B (Compound 5 set), Compd 5 9.6 mg/kg, listed as Compd 5): 0%
animal deaths [1, 3]: One mouse in this group was found dead on Day 18
body weight change on Day 21 [1, 3]: −2%
clinical signs after administration [1, 3]: recumbent and their voluntary activities were reduced
half-life at 5 μM (Stability in buffer; buffer pH 5.5, 37° C.): 117 h
half-life at 5 μM (Stability in buffer; buffer pH 6.0, 37° C.): 93.5 h
half-life at 5 μM (Stability in buffer; buffer pH 6.5, 37° C.): 85.4 h
half-life at 5 μM (Stability in buffer; buffer pH 7.4, 37° C.): 49.4 h
